The values that follow come from patent US20200247855A1, “THERAPY AND DIAGNOSTICS” (OXFORD UNIVERSITY INNOVATION LIMITED, priority 2017, published 2020).

The Kd is the constant that tells how readily two partners part at equilibrium.

Changes are numbered by the printed parent chain.

Sequences and labels used below:
T1: CCL14_HUMAN (Homo sapiens, UniProt Q16627)
T1 sequence (Q16627 20-93): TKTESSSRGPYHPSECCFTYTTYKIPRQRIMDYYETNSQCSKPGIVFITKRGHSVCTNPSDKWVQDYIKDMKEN

T2: CCL18_HUMAN (Homo sapiens, UniProt P55774)
T2 sequence (P55774 21-89): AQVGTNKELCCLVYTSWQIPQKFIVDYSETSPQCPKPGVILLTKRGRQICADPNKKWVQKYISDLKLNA

T3: CCL3_HUMAN (Homo sapiens, UniProt P10147)
T3 sequence (P10147 24-92): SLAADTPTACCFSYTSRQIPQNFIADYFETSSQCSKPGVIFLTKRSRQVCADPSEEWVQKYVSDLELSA

T4: CCL4L1_HUMAN (Homo sapiens, UniProt Q8NHW4)
T4 sequence (Q8NHW4 24-92): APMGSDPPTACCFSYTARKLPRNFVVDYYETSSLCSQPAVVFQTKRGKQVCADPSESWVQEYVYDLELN

T5: CCL4_HUMAN (Homo sapiens, UniProt P13236)
T5 sequence (P13236 24-92): T4 sequence (Q8NHW4 24-92) with G47S

T6: CCL8_HUMAN (Homo sapiens, UniProt P80075)
T6 sequence (P80075 24-99): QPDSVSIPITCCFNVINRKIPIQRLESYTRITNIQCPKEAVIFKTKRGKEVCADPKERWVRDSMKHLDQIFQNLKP

T7: CCL5_HUMAN (Homo sapiens, UniProt P13501)
T7 sequence (P13501 24-91): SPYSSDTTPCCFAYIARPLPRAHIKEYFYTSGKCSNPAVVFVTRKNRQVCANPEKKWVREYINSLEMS

T8: CXCL10_HUMAN (Homo sapiens, UniProt P02778)
T8 sequence (P02778 22-98): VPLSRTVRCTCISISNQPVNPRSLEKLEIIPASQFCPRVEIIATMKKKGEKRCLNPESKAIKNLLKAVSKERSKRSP

T9: CXCL8_HUMAN (Homo sapiens, UniProt P10145)
T9 sequence (P10145 21-99): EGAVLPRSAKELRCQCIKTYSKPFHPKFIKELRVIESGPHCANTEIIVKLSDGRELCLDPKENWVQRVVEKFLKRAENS

B1: P1181_AMBMA: tick CKBP, Amblyomma maculatum (protein, listed as Amblyomma maculatum)
chain: EEREDDNDYGGGCPFVVLGNGTHAKPAGCSHLCNGAPETLDNIECYNVTEEVAKRMTPDIPYTCWLGWCSKGECKRDNRTEVCYRGSERE
B2: P1180_AMBTR: tick CKBP, Amblyomma triste (protein)
chain: EEPKDGYDYTEGCPFVVLGNGTHAKPAGCSHLCNGAPETLDDNMECYNVTEEVAKRMTPDIPYTCWLGWCSKGECKRDNRTEVCYRGSERE
modifications: Amblyomma triste
B3: P1182_AMBMA: tick CKBP, Amblyomma maculatum (protein, listed as Amblyomma maculatum)
chain: EPKDDNDYGGGCPFVVLGNGTHAKPAGCSHLCNGAPETLDNIECYNVTEEVAKRMTPGIPYACWLGWCNKGECKRGNRTEVCYRGSEEE
B4: P983_AMBPA: tick CKBP; named P983_AMBCA in Table 1 (protein)
chain: EDTGTEDDFDYGNTGCPFPVLGNYKSNMTKPVGCKNKCGSGYEVLNDTTPCYVIDQKVFNNMVPLRQYSKCPLGFCENGECKPNDQAEDCYKGREEQK
modifications: Amblyomma cajennense
B5: P1063_AMBTR: tick CKBP, Amblyomma triste (protein)
chain: QSEVGKNVPGCGDTETLEAPPQEKPPYYEYKDEEGCTQKVLESWFQAGERSTGRGQKKRGHGRRPSRVLRTVDCRKNCTVGITALPDGHLCLVPRGDPFTRGGAIKYGCYLGDCASGHCQHRYETVSCRLPAPDTTAKPYYVTPEK
modifications: Amblyomma triste
B6: P1283_IXORI: tick CKBP, Ixodes ricinus (protein, listed as Ixodes ricinus)
chain: KEPEDTTLPPGALVDSPDSDNCSSPHLPYFDETTNMWMGFLAVNCTKKCPVGKHVTVVDGNKCIGTWSFLDELTITVLVGSCKDGFCETDGSSECRNITLAEEDSQEEEGAAAEEEDEEDEEDEEEEEAEEEREDDHDDA
B7: P1128_IXORI: novel CXC-binding tick CKBP, Ixodes ricinus (protein, listed as Ixodes ricinus)
chain: KDDEHFSVDYCGMNCTQQEDGSWTACSGRNEECRCYHESGKKNGLCLSTTYIDFSQYGNPSDSDIAAASPRP
B8: P1170_IXORI: novel CXC-binding tick CKBP, Ixodes ricinus (protein, listed as Ixodes ricinus)
chain: LGDEDQLFSVEYCGTNCTQQDDGKWTPCSGKNGKCKCYHEDGKRYGLCLYTEYTDFSQYPNPEGSEIENTRPRP
B9: P1174_IXORI: novel CXC-binding tick CKBP, Ixodes ricinus (protein, listed as Ixodes ricinus)
chain: LNNENELFSVEYCGANCTQQDNGSWTKCKGNCTCYHEDGKRYGLCLSTEYTDFTQFPKPTSEEIADASPRPKETNSH
B10: P1127_IXORI: novel CXC-binding tick CKBP, Ixodes ricinus (protein, listed as Ixodes ricinus)
chain: AGKDDEHFSVDYCGMNCTQQEDGSWTACSGRNGECRCYHESGKRSGLCLSTTYIDFSEYGNLSDSDIAAASPRLSMKESH

For the first assay, the target named is CCL11_HUMAN (Homo sapiens, UniProt P51671). The assay can be described thus: Biolayer interferometry (BLI) binding.
Chain of CCL11_HUMAN (P51671 24-97): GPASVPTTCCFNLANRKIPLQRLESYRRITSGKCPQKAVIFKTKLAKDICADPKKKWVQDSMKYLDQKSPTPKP
Conditions: not given
How it is done:
(§1) Table 1. Tick CKBPs described in PCT/GB2017/050563 and [17]. Tick peptide sequences isolated in yeast surface display fluorescent-activated cell sorting (FACS) screens using a labelled chemokine. Identity with Evasin-1, 4 or 3 was calculated using BLAST. Abbreviations: IXORI—Ixodes ricinus, RHISA—Rhipicephalus sanguineus, AMBMA—Amblyomma maculatum, AMBPA—Amblyomma parvum, AMBTR—Amblyomma triste, AMBAM—Amblyomma americanum, AMBCA—Amblyomma cajennense, RHIPU—Rhipicephalus pulchellus. Table 2A-C. Binding characteristics of tick CKBPs previously disclosed (PCT/GB2017/050563 and [17]). All members of the human chemokine family[164] are listed in column 1. Binding to human chemokines was determined for 14 tick CKBPs using biolayer interferometry (BLI) with calculated Kd shown as Molar (Moles/Litre). Binding data for 17 other novel tick CKBPs was assayed using yeast surface display[17,166],with positive binding results shown as “YES”. For biolayer interferometry, His-tagged purified tick CKBP was bound to a Ni-NINTA sensor on an OctetRed® 384 system, and then binding to each chemokine listed (with the exception of CCL25, CCL26, CXCL16, CXCL17, CXCL4L1, XCL2) was assayed in a cross-binding screen at a chemokine concentration of 300 nM as described. For those chemokines showing binding to a tick CKBP in the cross-binding screen, binding assays were repeated using different doses of chemokine. Association, equilibrium and dissociation data were analysed using Octet software to create corresponding fitted curves, and used to calculate Kd. For yeast surface display, (YSD) background fluorescence was controlled for by using either an empty vector or by omitting the chemokine (i.e. using streptavidin-Alexa647 alone). An arbitrary threshold of >3 fold over background mean fluorescence intensity was chosen to describe confirmed re-tests. Where binding was detected data are indicated as “YES”. […] For yeast surface display data, empty cells represent chemokines that were not tested. Binding data published in relation to previously described tick CKBPs (Evasins-1, 4 and 3) is also shown for comparison in each of FIGS. 2A-C, with the relevant data obtained from publications: [20-22,32]. Table 3: Neutralisation of human chemokines by tick CKBPs previously disclosed (PCT/GB2017/050563 and [17]). Neutralising activity was determined using a quantitative THP1 cell migration assay in a 96-well Boyden chamber with chemokine in the bottom chamber as described. Cells migrating through to the bottom chamber at 4 hours were counted using flow cytometry in a 96 well plate format. IC50 for neutralisation was determined at the chemokine EC80 dose as determined using a range of tick CKBP concentrations. Data was analysed using GraphPad Prism to determine IC50, which is shown as Molar (Moles/Litre). Empty cells represent experiments not done. Table 4—Other previously described tick CKBPs. Tick CKBPs that were also described in PCT/GB2017/050563 and Singh et al. are indicated in “Notes”. Table 5.—Novel tick CKBPs of the invention. Table 6. […] The peptide sequence prefix indicates the identity, and suffix indicate the tick species as follows: AMBCA, Amblyomma cajennense and IXORI, Ixodes ricinus. […] Certain tick peptides e.g. P1074_IXORI were recovered from screens performed with more than one chemokine. Individual yeast clones recovered from the library were re-tested using a FACS (fluorescence activated cell sorting), experiment. The binding of the peptide to the chemokine was assayed by measuring the percent (%), of yeast cells expressing the given peptide that exceeded a background threshold set by measuring the fluorescence of the yeast library pool treated with streptavidin-[…] alone. When more than one independent yeast clone was isolated for a given peptide-chemokine combination, the mean percent shift was calculated and reported in column 3. […]
As to B1, the Kd is 20 nM.
Still for that read-out and setting: next, B2: 33 nM.
On the same count and under the same terms, next, B3: 28 nM; B4: 21 nM.

The target of the next assay is CCL13_HUMAN (Homo sapiens, UniProt Q99616). Put plainly: Biolayer interferometry (BLI) binding.
Chain of CCL13_HUMAN (Q99616 17-98): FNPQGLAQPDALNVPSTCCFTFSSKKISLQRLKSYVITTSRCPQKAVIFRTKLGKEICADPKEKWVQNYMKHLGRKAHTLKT
Conditions: not given
As to the method: as §1
In general terms: Biolayer interferometry detects binding as a change in optical thickness at a sensor tip.
Take B1: the Kd was found to be 19 nM.
Still for that read-out and setting: in the case of B2 it was 9 nM.
Same read-out and setting: next, B3: 56 nM; B4: 17 nM.

The target in the next assay is T1, CCL14_HUMAN. Put plainly: Biolayer interferometry (BLI) binding.
Conditions: not given
How it is done:
as §1
For the molecule B1, the Kd was 47 nM.
Same read-out and setting: next, B2: 4.4 nM.
The same measure, in the same setting: next, B3: 50 nM.
B4: the Kd worked out at 81 nM.

The next assay has as its target T2, CCL18_HUMAN. Put plainly: Biolayer interferometry (BLI) binding.
Conditions: not given
As to the method:
as §1
Regarding B1, the Kd turned out to be 10 nM.
The same measure, in the same setting: in the case of B2 it was 5.8 nM; in that of B3, 33 nM.

The target in another assay is CCL2_HUMAN (Homo sapiens, UniProt P13500). The assay can be described thus: Biolayer interferometry (BLI) binding.
Chain of CCL2_HUMAN (P13500 24-99): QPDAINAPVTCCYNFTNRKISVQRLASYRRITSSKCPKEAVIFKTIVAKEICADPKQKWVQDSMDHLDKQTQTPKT
Conditions: not given
How it is done:
as §1
B1: the Kd came to 74 nM.
On the same count and under the same terms, next, B2: 53 nM; B3: 74 nM; B4: 14 nM.

The next assay deals with CCL3L1_HUMAN (Homo sapiens, UniProt P16619). The assay can be described thus: Biolayer interferometry (BLI) binding.
Chain of CCL3L1_HUMAN (P16619 24-93): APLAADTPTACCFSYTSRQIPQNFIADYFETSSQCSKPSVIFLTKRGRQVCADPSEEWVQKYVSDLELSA
Conditions: not given
How it is done:
as §1
As for B1, the Kd was found to be 3.3 nM.
On the same count and under the same terms, next, B2: 2.2 nM; B3: 9.5 nM.
Same read-out and setting: in the case of B4 it was 2.1 nM.

The target in another assay is T3, CCL3_HUMAN. Put plainly: Biolayer interferometry (BLI) binding.
Conditions: not given
How it is done:
as §1
For B1, the Kd turned out to be 2.2 nM.
On the same count and under the same terms, in the case of B2 it was 1.1 nM.
Same read-out and setting: next, B3: 5.4 nM; B4: 3.5 nM.

Another assay deals with T4, CCL4L1_HUMAN. The assay can be described thus: Biolayer interferometry (BLI) binding.
Conditions: not given
How it is done: as §1
As for B1, the Kd was 35 nM.
On the same count and under the same terms, next, B2: 20 nM; B3: 92 nM.

Another assay deals with T5, CCL4_HUMAN. Put plainly: Biolayer interferometry (BLI) binding.
Conditions: not given
As to the method:
as §1
As for B1, the Kd is 53 nM.
Still for that read-out and setting: in the case of B2 it was 66 nM; in that of B3, 63 nM.
On the same count and under the same terms, next, B4: 8 nM.

In the next assay the target is CCL7_HUMAN (Homo sapiens, UniProt P80098). Put plainly: Biolayer interferometry (BLI) binding.
Chain of CCL7_HUMAN (P80098 24-99): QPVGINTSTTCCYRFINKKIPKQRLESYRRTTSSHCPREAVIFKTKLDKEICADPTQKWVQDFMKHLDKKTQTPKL
Conditions: not given
As to the method:
as §1
Take B1: the Kd turned out to be 120 nM.
Consider B2, for which the dissociation constant Kd amounted to 98 nM.
Same read-out and setting: next, B4: 32 nM.

The target in a further assay is T6, CCL8_HUMAN. The assay can be described thus: Biolayer interferometry (BLI) binding. The settings on record: read-out: Kd, CCL8_HUMAN. As to the method: as §1
In the case of B1, the Kd turned out to be 14 nM.
Still for that read-out and setting: next, B2: 3.6 nM.
Take B3: the Kd worked out at 29 nM.
Same read-out and setting: in the case of B4 it was 7 nM.

The target in another assay is T7, CCL5_HUMAN. The assay can be described thus: Yeast surface display (YSD) FACS binding.
Conditions: not given
How it is done:
as §1
Turning to B5, the “Binding to CCL5_HUMAN, YSD” value is recorded as “YES (An arbitrary threshold of >3 fold over background mean fluorescence intensity was chosen to describe confirmed re-tests. Where binding was detected data are indicated as “YES”)”.

The target of another assay is T8, CXCL10_HUMAN. Put plainly: Yeast surface display (YSD) FACS binding. The following applies: yeast surface display. How it is done: as §1
(A flow cytometer gives signals particle by particle.)
With B6, the “Binding to CXCL10_HUMAN, YSD” value is reported as “YES (An arbitrary threshold of >3 fold over background mean fluorescence intensity was chosen to describe confirmed re-tests. Where binding was detected data are indicated as “YES”)”.

A further assay concerns the target T9, CXCL8_HUMAN. Put plainly: Yeast surface display (YSD) FACS binding. More on the design: label (chemical). The settings on record: FACS re-test; mean percent shift where several clones. How it is done: as §1
For B7, the “Chemokines bound in yeast surface display and % cells over threshold fluorescence: CXCL8_HUMAN” value is given as “CXCL8_HUMAN 53%”.
Same read-out and setting: next, B8: “CXCL8_HUMAN 81%”; B9: “CXCL8_HUMAN 29%”.
The same measure, in the same setting: in the case of B10 it was “CXCL8_HUMAN 43%”.
